Assay results as given in IntAct's records for PubMed 22036564.

Biological target: efna1_mouse Efna1 (UniProt P52793)
Sequence (P52793 whole entry): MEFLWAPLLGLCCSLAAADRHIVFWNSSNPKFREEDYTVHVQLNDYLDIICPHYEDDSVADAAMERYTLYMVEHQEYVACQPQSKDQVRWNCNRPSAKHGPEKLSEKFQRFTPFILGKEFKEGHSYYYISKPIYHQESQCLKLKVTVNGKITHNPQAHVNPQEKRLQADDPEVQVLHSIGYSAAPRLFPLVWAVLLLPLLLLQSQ

effect of a mutation on the interaction: decreasing interaction
Substance: Ephrin type-A receptor 7 (Homo sapiens), Q15375 T105Q
